Values quoted from earlier work in paper PMC7911750.

Molecular target: NKp30-Ig ECD (Homo sapiens) (UniProt O14931)
Chain of UniProt O14931 (O14931 19-135): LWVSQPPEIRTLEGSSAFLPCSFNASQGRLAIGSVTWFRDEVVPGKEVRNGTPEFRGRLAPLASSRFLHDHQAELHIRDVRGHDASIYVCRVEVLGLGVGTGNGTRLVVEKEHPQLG

Substance: pp65 (from UniProt P06725)
- Kd: 10 nM
